The target in assay [1] is E. coli Hfq V22A (E. coli) (UniProt P0A6X3). As to the kind of experiment: crystal structure; co-crystal of Hfq V22A with pA4 RNA; 22.5% PEGSB, 0.2 M LiSO4, 0.05 M zinc acetate, 0.1 M Bis-Tris pH 7.5; roughly 3.0 Å.
For assay [2] the target is unchanged. As to the kind of experiment: crystal structure; co-crystal of Hfq V22A with A17 RNA; 15% PEGSH, 0.15 M ammonium acetate, 0.1 M trisodium citrate pH 5; 2.1 Å.

By stoichiometry N is commonly meant a count of units in the complex or per binding partner.

For the substance “E. coli Hfq V22A (from UniProt P0A6X3 1-102) (natural protein)”, the stoichiometry N in assay [1] and in assay [2] was 6 in each case.

The values are drawn from publication PMC11770335.
